± gives the standard deviation of the averaged measurements.
System: ATP
Assay: switch fluorescence ratio, 500 uM ATP over buffer (Cy3 cluster intensity, sum of 5 cycles each) (fold (ratio)); higher = stronger signal-on switching upon ATP binding; sequences stand for … in TCGTCGGCAGCGTCAGATGTGTATAAGAGACAGTTTTTTTTTTTTTTTTTTTTTTTTT…TC
Conditions: aptamer strand: ATP DNA aptamer (quencher-CACCTGGGGGAGTATTGCGGAGGAAGG + anchor), 100 nM annealed; ATP concentration: 500 uM
Outline: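 Cy3-labelled switching-strand clusters on a modified Illumina MiSeq flow-cell were annealed to 100 nM quencher-labelled ATP aptamer and imaged first in selection buffer, then after 15 min with 500 uM ATP at 22 °C. NaOH stripping and re-annealing separated each of five buffer/ATP cycles, and clusters outside 100-1000 RFU were excluded. The fluorescence ratio sums target-cycle Cy3 intensity over buffer-cycle Cy3 intensity per cluster and averages it per switch-domain sequence.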
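Further: ATP exposure 15 min at 22 °C before imaging.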

| Sequence | switch fluorescence ratio |
| --- | --- |
| TTCAGAAGGT | 1.01 ± 0.051 |
| TTCAGACTTT | 0.996 ± 0.022 |
| TTCAGAGCGT | 0.994 ± 0.018 |
| TTCAGATGCG | 0.993 ± 0.041 |
| TTCAGATGGG | 0.972 ± 0.01 |
| TTCAGCCATT | 1.01 ± 0.041 |
| TTCAGCCGAG | 1.02 ± 0.014 |
| TTCAGCTCTA | 0.993 ± 0.028 |
| TTCAGGAGAC | 1.01 ± 0.041 |
| TTCAGGAGTG | 0.993 ± 0.067 |
| TTCAGGCCGT | 1.02 ± 0.056 |
| TTCAGGGAGA | 1.005 ± 0.008 |
| TTCAGGGGCT | 1.43 ± 0.58 |
| TTCAGGGGTC | 1.02 ± 0.018 |
| TTCAGTACCT | 1.19 ± 0.016 |
| TTCAGTATGG | 0.9614 ± 0.0068 |
| TTCAGTGCAT | 1.02 ± 0.051 |
| TTCAGTGGAG | 1.009 ± 0.0087 |
| TTCAGTTCGT | 1.008 ± 0.0089 |
| TTCAGTTGAG | 1 ± 0.014 |
| TTCAGTTTTA | 1.017 ± 0.0035 |
| TTCATAACAA | 1.02 ± 0.022 |
| TTCATAATGT | 0.9632 ± 0.0096 |
| TTCATCAGCG | 1.05 ± 0.083 |
| TTCATCGGGG | 0.979 ± 0.028 |
| TTCATGAGTT | 1 ± 0.0022 |

| Sequence | switch fluorescence ratio |
| --- | --- |
| TTCATGGGGC | 1.05 ± 0.086 |
| TTCATTAATC | 0.97104 ± 0.00025 |
| TTCATTCGCT | 1.52 ± 0.056 |
| TTCATTCGTT | 1.05 ± 0.046 |
| TTCATTGGGA | 1.01 ± 0.025 |
| TTCATTTCGG | 1.001 ± 0.0025 |
| TTCATTTGGT | 0.983 ± 0.025 |
| TTCCAATGAT | 1.01 ± 0.044 |
| TTCCACCAAA | 1.07 ± 0.033 |
| TTCCAGTTGG | 1.04 ± 0.037 |
| TTCCATGTCG | 0.958 ± 0.02 |
| TTCCATTTTT | 0.984 ± 0.012 |
| TTCCCCAGTT | 1.03 ± 0.036 |
| TTCCCCCTTT | 1.45 ± 0.58 |
| TTCCCCGTTG | 1.12 ± 0.15 |
| TTCCCGAAGT | 1.02 ± 0.04 |
| TTCCCGGACT | 1.02 ± 0.024 |
| TTCCCGTGGG | 1 ± 0.011 |
| TTCCGAAGGT | 1.03 ± 0.03 |
| TTCCGAGATA | 1.119 ± 0.0079 |
| TTCCGAGCTA | 2.563 ± 0.0074 |
| TTCCGCCGCT | 2.34 ± 1.8 |
| TTCCGGGAGG | 0.993 ± 0.076 |
| TTCCGGGGCG | 0.991 ± 0.038 |
| TTCCGGTCTT | 1.03 ± 0.066 |
| TTCCGGTTGT | 1.03 ± 0.011 |

| Sequence | switch fluorescence ratio |
| --- | --- |
| TTCCGTTATG | 1.04 ± 0.037 |
| TTCCTCTGTT | 1.37 ± 0.26 |
| TTCCTGAGGG | 1.11 ± 0.058 |
| TTCCTGGAC | 1.7 ± 0.39 |
| TTCCTTAGCG | 1.03 ± 0.015 |
| TTCCTTGGAT | 1.015 ± 0.0019 |
| TTCCTTGGTC | 1.18 ± 0.24 |
| TTCCTTTTGT | 1.29 ± 0.43 |
| TTCGAAGGTT | 0.979 ± 0.017 |
| TTCGACGCTA | 1.33 ± 0.57 |
| TTCGACGGTT | 1.03 ± 0.033 |
| TTCGACTTCG | 0.9903 ± 0.0063 |
| TTCGACTTTT | 0.988 ± 0.051 |
| TTCGAGACTT | 1.05 ± 0.055 |
| TTCGAGCGAT | 1.78 ± 0.98 |
| TTCGAGTTGG | 0.9772 ± 0.0027 |
| TTCGATCGTT | 1.01 ± 0.043 |
| TTCGATGCAT | 1.58 ± 0.43 |
| TTCGATTGTT | 0.952 ± 0.018 |
| TTCGCCTAAG | 0.9658 ± 0.0067 |
| TTCGCGGGTT | 0.97 ± 0.01 |
| TTCGCTGGGT | 0.995 ± 0.017 |
| TTCGGAAATG | 1.03 ± 0.025 |
| TTCGGAACAG | 0.967 ± 0.013 |
| TTCGGAAGGG | 0.956 ± 0.025 |
| TTCGGAAGTT | 0.966 ± 0.021 |

| Sequence | switch fluorescence ratio |
| --- | --- |
| TTCGGAATTG | 1.04 ± 0.033 |
| TTCGGACTGC | 1.06 ± 0.031 |
| TTCGGAGGGA | 2.2 ± 1.5 |
| TTCGGAGTTG | 1 ± 0.022 |
| TTCGGATGGC | 1.01 ± 0.084 |
| TTCGGATTCG | 0.968 ± 0.03 |
| TTCGGATTGG | 1.01 ± 0.0061 |
| TTCGGCGACG | 1.0016 ± 0.00078 |
| TTCGGCGCTG | 1.03 ± 0.074 |
| TTCGGGATTA | 1 ± 0.018 |
| TTCGGGGAAA | 1.02 ± 0.043 |
| TTCGGGGAAC | 1.06 ± 0.11 |
| TTCGGGGGGA | 1.04 ± 0.09 |
| TTCGGGGTGG | 0.9976 ± 0.0066 |
| TTCGGGTTTT | 1 ± 0.033 |
| TTCGGTACTG | 1.01 ± 0.033 |
| TTCGGTATGT | 1.01 ± 0.027 |
| TTCGGTGGCG | 0.978 ± 0.077 |
| TTCGGTGGGT | 0.988 ± 0.027 |
| TTCGGTGGTT | 1.08 ± 0.076 |
| TTCGTACAGC | 1.04 ± 0.036 |
| TTCGTAGAAA | 1.05 ± 0.032 |
| TTCGTATGGG | 1.09 ± 0.12 |
| TTCGTCGGAT | 0.9991 ± 0.0037 |
| TTCGTGGGGA | 0.995 ± 0.025 |
| TTCGTGTACG | 1.02 ± 0.019 |

| Sequence | switch fluorescence ratio |
| --- | --- |
| TTCGTGTATT | 1 ± 0.025 |
| TTCGTTAAAG | 0.9612 ± 0.002 |
| TTCGTTAAGA | 0.992 ± 0.0094 |
| TTCGTTATGT | 0.98 ± 0.027 |
| TTCGTTCGGT | 1.06 ± 0.07 |
| TTCGTTCTTC | 0.993 ± 0.019 |
| TTCGTTGGGG | 1.01 ± 0.041 |
| TTCGTTTATT | 1.01 ± 0.046 |
| TTCGTTTCGT | 0.995 ± 0.014 |
| TTCGTTTTAG | 0.996 ± 0.033 |
| TTCGTTTTCT | 1 ± 0.039 |
| TTCGTTTTGA | 1.02 ± 0.057 |
| TTCTAAAAAA | 1.01 ± 0.021 |
| TTCTAAAGGG | 0.984 ± 0.065 |
| TTCTAACTGG | 0.995 ± 0.013 |
| TTCTAAGGTA | 0.993 ± 0.021 |
| TTCTACTGGG | 1.01 ± 0.028 |
| TTCTAGTCTA | 0.987 ± 0.01 |
| TTCTATATGT | 0.977 ± 0.027 |
| TTCTATGCAT | 1.14 ± 0.13 |
| TTCTATTCTT | 1.02 ± 0.026 |
| TTCTCAAAGA | 1.07 ± 0.1 |
| TTCTCGAGTT | 0.992 ± 0.013 |
| TTCTCGTACA | 1.19 ± 0.29 |
| TTCTCTAATG | 1.03 ± 0.016 |
| TTCTCTATAT | 1.05 ± 0.11 |

| Sequence | switch fluorescence ratio |
| --- | --- |
| TTCTCTTGTT | 1 ± 0.037 |
| TTCTGAATTT | 0.999 ± 0.028 |
| TTCTGACGGT | 1.12 ± 0.037 |
| TTCTGCGGCT | 1.12 ± 0.039 |
| TTCTGCTCGC | 1.08 ± 0.058 |
| TTCTGGATCT | 0.996 ± 0.044 |
| TTCTGGCATG | 1.09 ± 0.099 |
| TTCTGGGGCT | 1.03 ± 0.017 |
| TTCTGGGGTG | 1.46 ± 0.67 |
| TTCTGGGTGG | 0.987 ± 0.04 |
| TTCTGGTAGG | 1 ± 0.025 |
| TTCTGTAATT | 1.02 ± 0.018 |
| TTCTGTTAGA | 1 ± 0.012 |
| TTCTGTTGAT | 0.9875 ± 0.0092 |
| TTCTTATTTT | 0.999 ± 0.014 |
| TTCTTGATAA | 1.01 ± 0.013 |
| TTCTTGGGGG | 1.01 ± 0.029 |
| TTCTTTATTT | 0.993 ± 0.027 |
| TTCTTTGAAT | 1.036 ± 0.0013 |
| TTCTTTGACT | 0.983 ± 0.024 |
| TTCTTTGGAC | 1.0597 ± 0.0003 |
| TTCTTTTCTT | 1.02 ± 0.047 |
| TTGAAAATCT | 1.02 ± 0.029 |
